Test results as given in PMC8131632 (2021).

B1: CB6/Junshi Fab-TD (Fab, V domains shown)
VH: EVQLVESGGGLVQPGGSLRLSCAASGFTVSSNYMSWVRQAPGKGLEWVSVIYSGGSTFYADSVKGRFTISRDNSMNTLFLQMNSLRAEDTAVYYCARVLPMYGDYLDYWGQGTLVTVSS
VL: not shown
B2: CB6/Junshi Ig-TD (antibody, V domains shown)
VH: EVQLVESGGGLVQPGGSLRLSCAASGFTVSSNYMSWVRQAPGKGLEWVSVIYSGGSTFYADSVKGRFTISRDNSMNTLFLQMNSLRAEDTAVYYCARVLPMYGDYLDYWGQGTLVTVSS
VL: not shown
B3: CB6/Junshi mIg-TD (antibody, V domains shown)
VH: EVQLVESGGGLVQPGGSLRLSCAASGFTVSSNYMSWVRQAPGKGLEWVSVIYSGGSTFYADSVKGRFTISRDNSMNTLFLQMNSLRAEDTAVYYCARVLPMYGDYLDYWGQGTLVTVSS
VL: not shown
B4: REGN10987 Fab-TD (Fab, V domains shown)
VH: QVQLVESGGGVVQPGRSLRLSCAASGFTFSNYAMYWVRQAPGKGLEWVAVISYDGSNKYYADSVKGRFTISRDNSKNTLYLQMNSLRTEDTAVYYCASGSDYGDYLLVYWGQGTLVTVSS
VL: QSALTQPASVSGSPGQSITISCTGTSSDVGGYNYVSWYQQHPGKAPKLMIYDVSKRPSGVSNRFSGSKSGNTASLTISGLQSEDEADYYCNSLTSISTWVFGGGTKLTVL
B5: REGN10987 Ig-TD (antibody, V domains shown)
VH: QVQLVESGGGVVQPGRSLRLSCAASGFTFSNYAMYWVRQAPGKGLEWVAVISYDGSNKYYADSVKGRFTISRDNSKNTLYLQMNSLRTEDTAVYYCASGSDYGDYLLVYWGQGTLVTVSS
VL: QSALTQPASVSGSPGQSITISCTGTSSDVGGYNYVSWYQQHPGKAPKLMIYDVSKRPSGVSNRFSGSKSGNTASLTISGLQSEDEADYYCNSLTSISTWVFGGGTKLTVL
B6: REGN10987 mIg-TD (antibody, V domains shown)
VH: QVQLVESGGGVVQPGRSLRLSCAASGFTFSNYAMYWVRQAPGKGLEWVAVISYDGSNKYYADSVKGRFTISRDNSKNTLYLQMNSLRTEDTAVYYCASGSDYGDYLLVYWGQGTLVTVSS
VL: QSALTQPASVSGSPGQSITISCTGTSSDVGGYNYVSWYQQHPGKAPKLMIYDVSKRPSGVSNRFSGSKSGNTASLTISGLQSEDEADYYCNSLTSISTWVFGGGTKLTVL
B7: REGN10933 Ig-TD (antibody, V domains shown)
VH: QVQLVESGGGLVKPGGSLRLSCAASGFTFSDYYMSWIRQAPGKGLEWVSYITYSGSTIYYADSVKGRFTISRDNAKSSLYLQMNSLRAEDTAVYYCARDRGTTMVPFDYWGQGTLVTVSS
VL: DIQMTQSPSSLSASVGDRVTITCQASQDITNYLNWYQQKPGKAPKLLIYAASNLETGVPSRFSGSGSGTDFTFTISGLQPEDIATYYCQQYDNLPLTFGGGTKVEIK
B8: REGN10933 Fab-TD (Fab, V domains shown)
VH: QVQLVESGGGLVKPGGSLRLSCAASGFTFSDYYMSWIRQAPGKGLEWVSYITYSGSTIYYADSVKGRFTISRDNAKSSLYLQMNSLRAEDTAVYYCARDRGTTMVPFDYWGQGTLVTVSS
VL: DIQMTQSPSSLSASVGDRVTITCQASQDITNYLNWYQQKPGKAPKLLIYAASNLETGVPSRFSGSGSGTDFTFTISGLQPEDIATYYCQQYDNLPLTFGGGTKVEIK
B9: REGN10933 mIg-TD (antibody, V domains shown)
VH: QVQLVESGGGLVKPGGSLRLSCAASGFTFSDYYMSWIRQAPGKGLEWVSYITYSGSTIYYADSVKGRFTISRDNAKSSLYLQMNSLRAEDTAVYYCARDRGTTMVPFDYWGQGTLVTVSS
VL: DIQMTQSPSSLSASVGDRVTITCQASQDITNYLNWYQQKPGKAPKLLIYAASNLETGVPSRFSGSGSGTDFTFTISGLQPEDIATYYCQQYDNLPLTFGGGTKVEIK
B10: REGN10933 IgG1 (antibody, V domains shown)
VH: QVQLVESGGGLVKPGGSLRLSCAASGFTFSDYYMSWIRQAPGKGLEWVSYITYSGSTIYYADSVKGRFTISRDNAKSSLYLQMNSLRAEDTAVYYCARDRGTTMVPFDYWGQGTLVTVSS
VL: DIQMTQSPSSLSASVGDRVTITCQASQDITNYLNWYQQKPGKAPKLLIYAASNLETGVPSRFSGSGSGTDFTFTISGLQPEDIATYYCQQYDNLPLTFGGGTKVEIK

target: SARS-CoV-2 spike receptor binding domain (RBD), Avi-tagged and biotinylated (SARS-CoV-2, UniProt P0DTC2 319-541, biotin (Avi tag, by BirA)); experiment: ELISA

B1 was tested. Which IC50 did it give?
Its IC50 is 30 pM.

How did the IC50 turn out when B2 was run?
Its IC50 is 100 pM.

For B3, which IC50 is on record?
The IC50 was 290 pM.

For B4, which IC50 is on record?
Its IC50 is 20 pM.

Which IC50 does the source give for B5 here?
Its IC50 is 120 pM.

How did the IC50 turn out when B6 was run?
Its IC50 is 400 pM.

How did the IC50 turn out when B7 was run?
The IC50 was 45 pM.

With B8 as the binder, how does the IC50 read?
The IC50 was 12 pM.

How did the IC50 turn out when B9 was run?
The IC50 was 180 pM.

B10 was tested. Which IC50 did it give?
The IC50 was 1450 pM.
